From patent publication US20230049152A1 (Genentech, published 2023) come the findings set out here.

Assay [1] has as its target T1, human CCR5 (human, UniProt P51681 1-352).
T1 construct: whole, on cells; transiently expressed on HEK293 cells
Briefly: flow cytometry, HEK293 with N-term FLAG-tagged human CCR5. The text has this: (§1) FIGS. 4A-4F depicts the binding data of hu.Ab3.H1L1 (FIG. 4A), hu.Ab4.H1L1 (FIG. 4B), and hu.Ab5.H1L1 (FIG. 4C), as well as the commercial anti-CCR8 mAbs murine anti-human CCR8 mAb 433H (BD Biosciences) (FIG. 4D), and murine anti-human CCR8 mAb L263G8 (Biolegend) (FIG. 4E), and the humanized anti-human Yoshida anti-CCR8 mAb (FIG. 4F), to HEK293 cells that were transiently transfected with N-term FLAG-tagged plasmids encoding for human GPCRs (CCR2, CCR3, CCR4, CCR5, CCR8, CXCR4, ACKR2, and ACKR4), hCCR8 constructs, or with a mock construct using transIT X2 (reagent:DNA=3:1).
(§2) To confirm the selectivity to CCR8, the binding of hu.Ab3.H1L1, hu.Ab4.H1L1, and hu.Ab5.H1L1, as well as the Yoshida humanized anti-human CCR8, murine anti-human CCR8 mAb L263G8 (Biolegend, Commercial Ab) and murine anti-human CCR8 mAb 433H (BD Biosciences, Commercial Ab), were characterized by flow cytometry on HEK293 cells that were transiently transfected with plasmids encoding for FLAG-tagged other related human GPCRs (CCR2-5, CXCR4, ACKR2, and ACKR4). Cell surface expression of each GPCR was confirmed by staining with an anti-FLAG antibody control. […]
For orientation: A flow cytometer gives signals particle by particle.

Assay [2] concerns the target T2, human ACKR4 (human, UniProt Q9NPB9 1-350).
T2 construct: whole, on cells; transiently expressed on HEK293 cells
T2 sequence (looked up): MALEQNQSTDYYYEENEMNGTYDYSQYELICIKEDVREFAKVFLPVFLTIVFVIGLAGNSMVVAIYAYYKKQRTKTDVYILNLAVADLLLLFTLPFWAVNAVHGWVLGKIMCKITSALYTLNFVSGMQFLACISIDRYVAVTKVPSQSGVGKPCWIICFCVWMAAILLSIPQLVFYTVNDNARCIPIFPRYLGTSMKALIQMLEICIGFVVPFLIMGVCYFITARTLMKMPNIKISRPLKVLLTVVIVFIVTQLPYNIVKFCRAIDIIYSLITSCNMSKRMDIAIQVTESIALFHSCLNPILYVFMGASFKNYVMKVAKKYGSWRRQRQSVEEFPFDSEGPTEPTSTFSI
Briefly: flow cytometry, HEK293 with N-term FLAG-tagged human ACKR4.
From the text: as §1, §2

For assay [3], the target named is T1, human CCR5. Description: flow cytometry, HEK293 with N-term FLAG-tagged human CCR5, procedure of FIG. 4. The text has this: (§3) To confirm the selectivity to CCR8, the binding of hu.Ab3.H1L1, hu.Ab4.H1L1, and hu.Ab5.H1L1, as well as the Yoshida humanized anti-human CCR8, murine anti-human CCR8 mAb L263G8 (Biolegend, Commercial Ab) and murine anti-human CCR8 mAb 433H (BD Biosciences, Commercial Ab), were characterized by flow cytometry on HEK293 cells that were transiently transfected with plasmids encoding for FLAG-tagged other related human GPCRs (CCR2-5, CXCR4, ACKR2, and ACKR4). Cell surface expression of each GPCR was confirmed by staining with an anti-FLAG antibody control. In particular, HEK293 cells were transfected with N-term FLAG-tagged human CCR2, CCR3, CCR4, CCR5, CXCR4, ACKR2, ACKR4, hCCR8 constructs, or with a Mock construct using transIT X2 (reagent:DNA=3:1) for 24 hours, and surface stained with various anti-hCCR8 monoclonal antibodies at 5 ug/ml, or rabbit anti-Flag pAb (Sigma) followed by AF647-anti-hIgG or AF647-anti-RbIgG respectively. Antibodies hu.Ab4.H1L1, and hu.Ab5.H1L1, only stained the hCCR8-containing cells, confirming their specificity to hCCR8. […] Thus, the CCR8 selective hu.Ab4.H1L1 and hu.Ab5.H1L1 antibodies with the best ADCC activities were carried forward.
(§4) To reconfirm that the Ab4 and Ab5 variants remained selective to CCR8 compared to the corresponding HIL1 variants, binding was analyzed by flow cytometry following the procedure as described for FIG. 4A and FIG. 4B. […]

For assay [4], the target named is T3, human ACKR2 (human, UniProt O00590 1-384).
T3 construct: whole, on cells; transiently expressed on HEK293 cells
T3 sequence (looked up): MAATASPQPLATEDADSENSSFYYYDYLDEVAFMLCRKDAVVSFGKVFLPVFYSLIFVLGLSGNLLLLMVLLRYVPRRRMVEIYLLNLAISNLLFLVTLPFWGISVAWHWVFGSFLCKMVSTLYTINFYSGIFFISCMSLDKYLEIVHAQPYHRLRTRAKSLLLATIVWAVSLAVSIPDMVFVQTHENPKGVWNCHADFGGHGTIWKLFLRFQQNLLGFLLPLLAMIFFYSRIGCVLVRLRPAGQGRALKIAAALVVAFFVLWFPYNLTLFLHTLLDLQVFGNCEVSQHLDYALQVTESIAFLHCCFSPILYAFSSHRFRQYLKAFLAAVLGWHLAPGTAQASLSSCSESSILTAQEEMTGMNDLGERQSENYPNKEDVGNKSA
Description: flow cytometry, HEK293 with N-term FLAG-tagged human ACKR2, procedure of FIG. 4.
From the text: as §3, §4

Assay [5] has as its target T4, human CCR8 (human, UniProt P51685 1-355).
T4 construct: the assay field says which; also called hCCR8; huCCR8
Briefly: radioligand competition, 125I-labelled IgG versus unlabelled IgG on CHO cells stably expressing human CCR8. Here is the method:
(§5) Cell-based affinity measurements were performed using radiolabeled IgGs and CHO cell lines stably expressing human or cyno CCR8 for hu.Ab5.H13L1 and hu.Ab4.H12L3.
(§6) Briefly, stable CHO cells expressing human or cyno CCR8 were seeded in cold binding buffer (Opti-MEM+2% FBS+50 mM HEPES, pH 7.2+0.1% Sodium Azide) at 50,000 cells per well. A fixed concentration of ¹²⁵I-anti-CCR8 radiolabeled using the NEX244 Iodogen method (Perkin Elmer) was mixed with serially diluted anti-CCR8 antibodies starting at 20 nM or 50 nM. The antibody mixture was added to the cells and incubated at room temperature for 12 hours under gentle agitation. The cells and antibodies were then transferred to Millipore multiscreen filter plates. The filter plates were washed 4 times with 250 μL of cold binding buffer and dried for at least 30 minutes and the filters were punched into 5 mL polystyrene tubes. The radioactivity was measured using a Perkin Elmer Wallac Wizard 2470 Gamma Counter set at 1 count per minute with 0.8 counting efficiency. The data were fitted using the heterologous one site-fit Ki competitive binding model in GraphPad Prism.
Background: In a radioligand displacement assay an active substance lowers the binding of a labelled ligand.

For assay [6], the target named is T5, cyno CCR8 (cynomolgus monkey, UniProt O97665 1-356 (rhesus entry)).
T5 construct: also called cynomolgus monkey CCR8
T5 sequence (O97665 other isoform, or with tags, fused parts or gaps): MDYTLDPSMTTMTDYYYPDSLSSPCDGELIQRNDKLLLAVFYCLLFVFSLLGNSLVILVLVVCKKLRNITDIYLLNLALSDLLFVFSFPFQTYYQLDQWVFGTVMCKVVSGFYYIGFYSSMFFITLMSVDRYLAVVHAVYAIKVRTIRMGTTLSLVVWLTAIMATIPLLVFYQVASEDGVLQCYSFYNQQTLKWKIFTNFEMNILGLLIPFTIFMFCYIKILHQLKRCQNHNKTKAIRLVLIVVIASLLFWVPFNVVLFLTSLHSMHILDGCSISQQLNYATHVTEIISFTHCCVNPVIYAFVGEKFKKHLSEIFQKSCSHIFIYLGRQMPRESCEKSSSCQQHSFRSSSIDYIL
Description: radioligand competition on CHO cells stably expressing cyno CCR8: fixed 125I-anti-CCR8 against serially diluted unlabelled antibody. The procedure:
as §5, §6

T1 sequence (P51681 whole entry): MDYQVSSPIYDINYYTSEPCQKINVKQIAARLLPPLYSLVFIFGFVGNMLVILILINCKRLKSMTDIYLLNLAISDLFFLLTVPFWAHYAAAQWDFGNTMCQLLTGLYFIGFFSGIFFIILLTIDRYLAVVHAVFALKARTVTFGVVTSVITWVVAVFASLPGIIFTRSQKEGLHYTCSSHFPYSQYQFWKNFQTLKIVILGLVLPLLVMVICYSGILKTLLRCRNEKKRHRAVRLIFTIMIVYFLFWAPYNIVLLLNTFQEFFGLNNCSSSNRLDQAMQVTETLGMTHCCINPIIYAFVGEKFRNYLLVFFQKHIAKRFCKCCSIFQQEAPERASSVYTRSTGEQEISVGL

B1: hu.Ab5.H1L1 (antibody, human IgG1, kappa)
heavy: not shown
light: DIQVTQSPSSLSASVGDRVTITCQASENIANALAWYQQKPGKPPKFLIYGASNLASGVPSRFSGSGSGTDFTFTISSLQPEDIATYYCQQAYYGNSFVEGTFGGGTKVEIKRTVAAPSVFIFPPSDEQLKSGTASVVCLLNNFYPREAKVQWKVDNALQSGNSQESVTEQDSKDSTYSLSSTLTLSKADYEKHKVYACEVTHQGLSSPVTKSFNRGEC
B1: the binding result in assay [1] and in assay [2] was “no binding (tested: 5 ug/ml)” throughout.

B2: hu.Ab5.H13L1 (antibody, human IgG1, kappa)
heavy: not shown
light: DIQVTQSPSSLSASVGDRVTITCQASENIANALAWYQQKPGKPPKFLIYGASNLASGVPSRFSGSGSGTDFTFTISSLQPEDIATYYCQQAYYGNSFVEGTFGGGTKVEIKRTVAAPSVFIFPPSDEQLKSGTASVVCLLNNFYPREAKVQWKVDNALQSGNSQESVTEQDSKDSTYSLSSTLTLSKADYEKHKVYACEVTHQGLSSPVTKSFNRGEC
notes: fucosylated human IgG1; also called Ab5 variant
Turning to B2, the binding result in assay [3] and in assay [4] was “no binding (tested: 5 ug/ml)” in each case. Also, in assay [5], the Kd (in general, the constant that tells how readily two partners part at equilibrium) amounted to 0.004 nM. Further, the “IC50 (read off the curve)” value in assay [6] was about 0.05 nM.

B3: hu.Ab4.H1L1 (antibody, human IgG1, kappa)
heavy: not shown
light: DYQMTQSPSSLSASVGDRVTITCQASQSISSYLSWYQQKPGKRPKLLIYKASTLASGVPSRFSGSGSGTDFTLTISSLQPEDFATYYCQQGYTSSNIDNIFGGGTKVEIKRTVAAPSVFIFPPSDEQLKSGTASVVCLLNNFYPREAKVQWKVDNALQSGNSQESVTEQDSKDSTYSLSSTLTLSKADYEKHKVYACEVTHQGLSSPVTKSFNRGEC
notes: also called hu.Ab4.H1Ll
As to B3, the binding result in assay [1] and in assay [2] was “no binding (tested: 5 ug/ml)” in each case.

B4: hu.Ab4.H12L3 (antibody, human IgG1, kappa)
heavy: not shown
light: DYQMTQSPSSLSASVGDRVTITCQASQSISSYLSWYQQKPGKAPKLLIYKASTLASGVPSRFSGSGSGTDFTLTISSLQPEDFATYYCQQGYTSSNIDNIFGGGTKVEIKRTVAAPSVFIFPPSDEQLKSGTASVVCLLNNFYPREAKVQWKVDNALQSGNSQESVTEQDSKDSTYSLSSTLTLSKADYEKHKVYACEVTHQGLSSPVTKSFNRGEC
notes: fucosylated human IgG1; also called huCCR8-Ab4.H12L3.hIgG1; Ab4 variant
Consider B4, for which the binding result in assay [3] and in assay [4] was “no binding (tested: 5 ug/ml)” each time. Also, the Kd in assay [5] worked out at 0.0284 nM. Also, in assay [6], the “IC50 (read off the curve)” value was about 0.1 nM.
